Paper PMC2804858

Molecular target: Mcm2-7 hexamer (budding yeast (endogenous in yeast extract) | budding yeast) (UniProt P29469)
Test: negative-stain electron microscopy

stoichiometry N: 2 hexamers
Substance: Mcm2-7 hexamer, P29469 1-868; P24279 1-971; P30665 1-933; P29496 1-775; P53091 1-1017; P38132 1-845
